Tests used:
D-TAT-IB1 peptide = target: T1, D-TAT-IB1 peptide
T1 chain: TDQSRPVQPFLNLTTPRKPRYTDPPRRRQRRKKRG

L-TAT-IB2 peptide = target: T2, L-TAT-IB2 peptide
T2 chain: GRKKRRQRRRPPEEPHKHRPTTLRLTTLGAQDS

L-TAT-IB1 peptide = target: T3, L-TAT-IB1 peptide
T3 chain: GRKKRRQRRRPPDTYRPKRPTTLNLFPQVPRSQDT

[1] = target: T4, D-TAT-JNKI1 (i.e., D-TAT-JBD20)
T4 chain: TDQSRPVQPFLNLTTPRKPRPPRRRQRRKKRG

[2] = target: T5, L-TAT-JNKI1 (i.e., L-TAT-JBD20)
T5 chain: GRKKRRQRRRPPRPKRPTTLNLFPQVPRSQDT

B1: recombinant nonactivated JNK1 (protein)
chain: MSRSKRDNNFYSVEIGDSTFTVLKRYQNLKPIGSGAQGIVCAAYDAILERNVAIKKLSRPFQNQTHAKRAYRELVLMKCVNHKNIIGLLNVFTPQKSLEEFQDVYIVMELMDANLCQVIQMELDHERMSYLLYQMLCGIKHLHSAGIIHRDLKPSNIVVKSDCTLKILDFGLARTAGTSFMMTPYVVTRYYRAPEVILGMGYKENVDLWSVGCIMGEMVCHKILFPGRDYIDQWNKVIEQLGTPCPEFMKKLQPTVRTYVENRPKYAGYSFEKLFPDVLFPADSEHNKLKASQARDLLSKMLVIDASKRISVDEALQHPYINVWYDPSEAEAPPPKIPDKQLDEREHTIEEWKELIYKEVMDLEERTKNGVIRGQPSPLGAAVINGSQHPSSSSSVNDVSSMSTDPTLASDTDSSLEAAAGPLGCCR
For B1, the “GST-Jun (a.a. 1-73) phosphorylation by recombinant JNK1, fold less efficient than L-TAT-IB1 (0-250 µM dosage study)” value (D-TAT-IB1 peptide) was “approximately 10-20 fold less efficiently than L-TAT-IB1”, the “phosphorylation of c-Jun, ATF2 and Elk1 by recombinant JNK1, solid phase kinase assay (peptide 0-25 µM)” value (L-TAT-IB2 peptide) was “Nearly complete inhibition of c-Jun, ATF2 and Elk1 phosphorylation by JNKs was observed at TAT-IB peptide doses as low as 2.5 µM” and the “phosphorylation of c-Jun, ATF2 and Elk1 by recombinant JNK1, solid phase kinase assay (peptide 0-25 µM)” value (L-TAT-IB1 peptide) was “Nearly complete inhibition of c-Jun, ATF2 and Elk1 phosphorylation by JNKs was observed at TAT-IB peptide doses as low as 2.5 µM”.

B2: recombinant nonactivated JNK2 (protein)
chain: MSDSKCDSQFYSVQVADSTFTVLKRYQQLKPIGSGAQGIVCAAFDTVLGINVAVKKLSRPFQNQTHAKRAYRELVLLKCVNHKNIISLLNVFTPQKTLEEFQDVYLVMELMDANLCQVIHMELDHERMSYLLYQMLCGIKHLHSAGIIHRDLKPSNIVVKSDCTLKILDFGLARTACTNFMMTPYVVTRYYRAPEVILGMGYKENVDIWSVGCIMGELVKGCVIFQGTDHIDQWNKVIEQLGTPSAEFMKKLQPTVRNYVENRPKYPGIKFEELFPDWIFPSESERDKIKTSQARDLLSKMLVIDPDKRISVDEALRHPYITVWYDPAEAEAPPPQIYDAQLEEREHAIEEWKELIYKEVMDWEERSKNGVVKDQPSDAAVSSNATPSQSSSINDISSMSTEQTLASDTDSSLDASTGPLEGCR
For B2, the “GST-Jun (a.a. 1-73) phosphorylation by recombinant JNK2, fold less efficient than L-TAT-IB1 (0-250 µM dosage study)” value (D-TAT-IB1 peptide) was “approximately 10-20 fold less efficiently than L-TAT-IB1”, the “phosphorylation of c-Jun, ATF2 and Elk1 by recombinant JNK2, solid phase kinase assay (peptide 0-25 µM)” value (L-TAT-IB2 peptide) was “Nearly complete inhibition of c-Jun, ATF2 and Elk1 phosphorylation by JNKs was observed at TAT-IB peptide doses as low as 2.5 µM” and the “phosphorylation of c-Jun, ATF2 and Elk1 by recombinant JNK2, solid phase kinase assay (peptide 0-25 µM)” value (L-TAT-IB1 peptide) was “Nearly complete inhibition of c-Jun, ATF2 and Elk1 phosphorylation by JNKs was observed at TAT-IB peptide doses as low as 2.5 µM”.

B3: recombinant nonactivated JNK3 (protein)
chain: MSLHFLYYCSEPTLDVKIAFCQGFDKQVDVSYIAKHYNMSKSKVDNQFYSVEVGDSTFTVLKRYQNLKPIGSGAQGIVCAAYDAVLDRNVAIKKLSRPFQNQTHAKRAYRELVLMKCVNHKNIISLLNVFTPQKTLEEFQDVYLVMELMDANLCQVIQMELDHERMSYLLYQMLCGIKHLHSAGIIHRDLKPSNIVVKSDCTLKILDFGLARTAGTSFMMTPYVVTRYYRAPEVILGMGYKENVDIWSVGCIMGEMVRHKILFPGRDYIDQWNKVIEQLGTPCPEFMKKLQPTVRNYVENRPKYAGLTFPKLFPDSLFPADSEHNKLKASQARDLLSKMLVIDPAKRISVDDALQHPYINVWYDPAEVEAPPPQIYDKQLDEREHTIEEWKELIYKEVMNSEEKTKNGVVKGQPSPSGAAVNSSESLPPSSSVNDISSMSTDQTLASDTDSSLEASAGPLGCCR
B3 was tested, and the “GST-Jun (a.a. 1-73) phosphorylation by recombinant JNK3, fold less efficient than L-TAT-IB1 (0-250 µM dosage study)” value (D-TAT-IB1 peptide) was “approximately 10-20 fold less efficiently than L-TAT-IB1”, the “phosphorylation of Elk1 by recombinant JNK3, solid phase kinase assay” value (L-TAT-IB2 peptide) was “a marked exception was the absence of TAT-IB inhibition of JNK3 phosphorylation of Elk1” and the “phosphorylation of c-Jun and ATF2 by recombinant JNK3, solid phase kinase assay (peptide 0-25 µM)” value (L-TAT-IB2 peptide) was “Nearly complete inhibition of c-Jun, ATF2 and Elk1 phosphorylation by JNKs was observed at TAT-IB peptide doses as low as 2.5 µM”. The “phosphorylation of Elk1 by recombinant JNK3, solid phase kinase assay” value (L-TAT-IB1 peptide) was “a marked exception was the absence of TAT-IB inhibition of JNK3 phosphorylation of Elk1” and the “phosphorylation of c-Jun and ATF2 by recombinant JNK3, solid phase kinase assay (peptide 0-25 µM)” value (L-TAT-IB1 peptide) was “Nearly complete inhibition of c-Jun, ATF2 and Elk1 phosphorylation by JNKs was observed at TAT-IB peptide doses as low as 2.5 µM”.

B4: recombinant JNK1α1 (protein)
chain: MSRSKRDNNFYSVEIGDSTFTVLKRYQNLKPIGSGAQGIVCAAYDAILERNVAIKKLSRPFQNQTHAKRAYRELVLMKCVNHKNIIGLLNVFTPQKSLEEFQDVYIVMELMDANLCQVIQMELDHERMSYLLYQMLCGIKHLHSAGIIHRDLKPSNIVVKSDCTLKILDFGLARTAGTSFMMTPYVVTRYYRAPEVILGMGYKENVDLWSVGCIMGEMVCHKILFPGRDYIDQWNKVIEQLGTPCPEFMKKLQPTVRTYVENRPKYAGYSFEKLFPDVLFPADSEHNKLKASQARDLLSKMLVIDASKRISVDEALQHPYINVWYDPSEAEAPPPKIPDKQLDEREHTIEEWKELIYKEVMDLEERTKNGVIRGQPSPLAQVQQ
In the case of B4, the “in vitro phosphorylation of GST-Jun and GST-Elk1 by JNK1α1, kinase assay” value [1] is reported as “their ability to prevent the phosphorylation in vitro of known JNK targets c-Jun and Elk1 using JNK1α1” and the “in vitro phosphorylation of GST-Jun and GST-Elk1 by JNK1α1, kinase assay” value [2] is reported as “their ability to prevent the phosphorylation in vitro of known JNK targets c-Jun and Elk1 using JNK1α1”.

B5: MKK4 kinase (protein)
chain: MAAPSPSGGGGSGGGSGSGTPGPVGSPAPGHPAVSSMQGKRKALKLNFANPPFKSTARFTLNPNPTGVQNPHIERLRTHSIESSGKLKISPEQHWDFTAEDLKDLGEIGRGAYGSVNKMVHKPSGQIMAVKRIRSTVDEKEQKQLLMDLDVVMRSSDCPYIVQFYGALFREGDCWICMELMSTSFDKFYKYVYSVLDDVIPEEILGKITLATVKALNHLKENLKIIHRDIKPSNILLDRSGNIKLCDFGISGQLVDSIAKTRDAGCRPYMAPERIDPSASRQGYDVRSDVWSLGITLYELATGRFPYPKWNSVFDQLTQVVKGDPPQLSNSEEREFSPSFINFVNLCLTKDESKRPKYKELLKHPFILMYEERAVEVACYVCKILDQMPATPSSPMYVD
For B5, the “kinase activity towards its substrate, panel of 40 kinases (10 µM peptides, 10 µM ATP)” value (from here on “kinase activity towards its substrate”) [1] was “the JNKI peptides had an affect on the JNKs and MKK4 and MKK7 kinases” and the “kinase activity towards its substrate” value [2] was “the JNKI peptides had an affect on the JNKs and MKK4 and MKK7 kinases”.

B6: MKK7 kinase (protein)
chain: MAASSLEQKLSRLEAKLKQENREARRRIDLNLDISPQRPRPTLQLPLANDGGSRSPSSESSPQHPTPPARPRHMLGLPSTLFTPRSMESIEIDQKLQEIMKQTGYLTIGGQRYQAEINDLENLGEMGSGTCGQVWKMRFRKTGHVIAVKQMRRSGNKEENKRILMDLDVVLKSHDCPYIVQCFGTFITNTDVFIAMELMGTCAEKLKKRMQGPIPERILGKMTVAIVKALYYLKEKHGVIHRDVKPSNILLDERGQIKLCDFGISGRLVDSKAKTRSAGCAAYMAPERIDPPDPTKPDYDIRADVWSLGISLVELATGQFPYKNCKTDFEVLTKVLQEEPPLLPGHMGFSGDFQSFVKDCLTKDHRKRPKYNKLLEHSFIKRYETLEVDVASWFKDVMAKTESPRTSGVLSQPHLPFFR
In the case of B6, the “kinase activity towards its substrate” value [1] is reported as “the JNKI peptides had an affect on the JNKs and MKK4 and MKK7 kinases” and the “kinase activity towards its substrate” value [2] is reported as “the JNKI peptides had an affect on the JNKs and MKK4 and MKK7 kinases”.

From patent US20040082509
